{"source": "paper PMC9806585", "substrate": "NC(=O)CC[C@H](N)C(=O)O", "experiment": "cells, lysate or membranes", "settings": "standard assay: 0.4 mM oxaloacetate, pyridoxal phosphate, 150 mM sodium borate pH 8.5, 37 °C, enzyme not fully purified"}
{"protein": "recombinant Arabidopsis GTK (Gln transaminase K) (Arabidopsis thaliana) (protein) MYLDINGVMIKQFSFKASLLPFSSNFRQSSAKIHRPIGATMTTVSTQNESTQKPVQVAKRLEKFKTTIFTQMSILAVKHGAINLGQGFPNFDGPDFVKEAAIQAIKDGKNQYARGYGIPQLNSAIAARFREDTGLVVDPEKEVTVTSGCTEAIAAAMLGLINPGDEVILFAPFYDSYEATLSMAGAKVKGITLRPPDFSIPLEELKAAVTNKTRAILMNTPHNPTGKMFTREELETIASLCIENDVLVFSDEVYDKLAFEMDHISIASLPGMYERTVTMNSLGKTFSLTGWKIGWAIAPPHLTWGVRQAHSYLTFATSTPAQWAAVAALKAPESYFKELKRDYNVKKETLVKGLKEVGFTVFPSSGTYFVVADHTPFGMENDVAFCEYLIEEVGVVAIPTSVFYLNPEEGKNLVRFAFCKDEETLRGAIERMKQKLKRKV", "values": [{"measurement": "Km", "value": 300, "unit": "µM"}]}
